{"source": "paper PMC3430215", "target": "Dunaliella salina Hsp90 (DsHsp90) (Dunaliella salina)", "experiment": "SEC; Superdex G200 10/30 column on an AKTA system; 40 mM HEPES, 25 mM KCl, pH 7.5; apparent molecular weight from a standard curve of markers; single peak", "data": [{"substance": "Dunaliella salina Hsp90 (DsHsp90) (natural protein)", "values": [{"measurement": "stoichiometry N", "value": 2}]}]}
